Reference: publication PMC4880445, “Structure of a Holliday junction complex reveals mechanisms governing a highly regulated DNA transaction” (eLife, 2016)

B1: bacteriophage λ integrase (Int) (enzyme)
chain: MGRRRSHERRDLPPNLYIRNNGYYCYRDPRTGKEFGLGRDRRIAITEAIQANIELFSGHKHKPLTARINSDNSVTLHSWLDRYEKILASRGIKQKTLINYMSKIKAIRRGLPDAPLEDITTKEIAAMLNGYIDEGKAASAKLIRSTLSDAFREAIAEGHITTNHVAATRAAKSEVRRSRLTADEYLKIYQAAESSPCWLRLAMELAVVTGQRVGDLCEMKWSDIVDGYLYVEQSKTGVKIAIPTALHIDALGISMKETLDKCKEILGGETIIASTRREPLSSGTVSRYFMRARKASGLSFEGDPPTFHELRSLSARLYEKQISDKFAQHLLGHKSDTMASQYRDDRGREWDKIEIK
notes: Integrase (Int) of bacteriophage λ, tyrosine recombinase; The model holds the NTD (residues 1-55), the NTD-CB linker (56-74) and the CB and catalytic domains (75-356); The NTD of Int-C is not in the model; also called site-specific recombinase; Int-B

How the values were obtained:
[1] = biological target: B1; assay: cryo-EM structure; excisive Holliday junction complex trapped by in vitro recombination of attL and attR (150 nM IHF, 350 nM Xis, 350 nM Int, 25 mM HEPES pH 7.5, room temperature); crosslinked with 0.0035% glutaraldehyde; purified on sucrose gradients; single particle map at about 11 Å; model built by fitting known crystal and NMR structures into the density; conditions: both partners purified
[2] = biological target: the molecule itself; assay: as above

Binder | binding result [1] | stoichiometry N [2]
bacteriophage λ Xis protein (natural protein, UniProt P03699 1-72, looked up, Virally encoded accessory DNA-bending protein Xis of bacteriophage λ; The 18 C-terminal residues are missing from the model, as in the Xis-DNA crystal structures; also called Xis1.5) MYLTLQEWNARQRRPRSLETVRRWVRECRIFPPPVKDGREYLFHESAVKVDLNRPVTGGLLKRIRNGKKAKS | binds | –
B1 | – | 4
